In patent US20050059589A1, “Methods and compositions for treating allergic reactions” (priority 1991, published 2005):

Assays:
[1] = test system: early and late phase response in nasal tissue of patients with seasonal allergic rhinitis; experiment: nasal challenge with ragweed or mixed-grass pollen antigen; type: in vivo, human; conditions: prechallenge nasal lavages with IL-1 receptor versus buffer, 1000 PNU antigen, late and rechallenge reactions
Excerpt: Sixteen patients with seasonal allergic rhinitis due to grass or ragweed pollens are selected.
Ragweed and mixed-grass pollen extracts (timothy, orchard, June and meadow grass in a ratio of 3:2:3:2) are purchased from Greer Laboratories (Lenoir, N.C.); lactated Ringer's solution and oxymetazoline hydrochloride (Afrin, Schering, Kenilworth, N.J.) are purchased from the hospital pharmacy.
At the time of the challenge, oxymetazoline hydrochloride is sprayed into the nose (two sprays per nostril) of all patients to prevent mucosal congestion, which would interfere with the collection of nasal secretions.
Eight of the sixteen patients receive four prechallenge nasal lavages with IL-1 receptor diluted in buffer; the remaining […] receive lavages with buffer only. Thereafter, challenges with 1000 PNU of antigen are undertaken.
The patients maintain a symptom score sheet during the challenge procedure. In addition to the number of sneezes, a six-point scale from 0 to 5 (with 0 equal to no symptoms and 5 equal to severe symptoms) is used to assess nasal secretion, blockage, and itching. The degree of blockage is, of course, underestimated on those score sheets because of the pretreatment with oxymetazoline hydrochloride. The presence or absence of symptoms correlates with the presence or absence of mediators during the late reaction.

[2] = test system: conjunctival allergic response to ryegrass allergen; experiment: conjunctival provocation test (CPT) with ryegrass allergen; type: in vivo, human
Protocol: Ten ryegrass-sensitive patients with hay fever conjunctivitis and ten nonallergic subjects without ocular disease are challenged by weekly topical administration of ryegrass allergen for 4 weeks with 10 μl of four different allergen doses (10,000, 32,000, 100,000, and 320,000 BU/ml of ryegrass allergen) (Pharmalgen, Pharmacia Diagnostics AB, Uppsala, Sweden). Albumin diluent (Pharmacia), is used to dilute the allergen. Five of the patients and five of the nonallergic subjects are given allergen premixed with IL-1 receptor. The other five patients and subjects are given allergen without IL-1receptor. Importantly, the allergic patients and control subjects have no clinical symptoms before ocular provocation. […]
The challenge solution is administered to the contralateral eye in both patients and control subjects. Clinical conjunctival evaluation with tear-fluid cytology is assessed in both eyes before administration of allergen or buffer 20 minutes, one hour, and six hours after challenge. In both the allergic patients and control subjects, the following ocular symptoms, both subjective and objective, are evaluated by a physician: hyperemia, edema, tearing, and itching. Each symptom is scored from 0 to 4+ and graded as follows: 0—absent; 1+—mild; 2+—moderate; 3+—severe; and 4+—very severe. […]

[3] = test system: experimental autoimmune encephalomyelitis; conditions: interperitoneal administration; cited from earlier work
[4] = test system: late phase reaction in lung tissue of patients with allergic bronchial asthma; experiment: allergen inhalation (dust mite extract) with bronchoalveolar lavage; type: in vivo, human; conditions: allergen premixed with IL-1 receptor versus allergen alone
Protocol: In this example, twenty patients with documented allergic bronchial asthma participate. Allergen inhalation is performed by inhaling dust mite extract (see Example 1, above) at 15 minute intervals using a Wiesbadnener Doppelspray (8 L/min air flow, nebulizer output approximately 0.2 ml/min). Ten patients received the allergen premixed with IL-1 receptor; the other ten patients received the allergen alone.
Eosinophil granule major basic protein levels are markedly elevated in the lavage fluid of these asthmatic patients. Peripheral blood eosinophil counts decrease during late phase responses to antigen challenge at the time eosinophil levels in the pulmonary tissues increases, presumably because of margination and emigration in the lungs.

[5] = test system: cutaneous allergic reactions following the intradermal administration of antigen; experiment: LPR skin test, intradermal challenge with dust mite antigen; type: in vivo, human; conditions: IL-1 receptor 1.65 mg/ml injected with dust mite antigen, versus allergen without receptor
Protocol: The LPR skin test is performed by interadermally injecting subjects on the forearm with test solution. The test solution contains the challenging antigen. Controls receive test solution without challenging antigen. The injection site is thereafter examined at intervals up to 96 hours. The diameters of the reactions are measured in two perpendicular directions and the characteristics are noted at different times.
The LPR gradually subsides over a 24 hour period. At the peak, the injection site is characterized by erythema, warmth, edema, pruritus and/or tenderness. The LPR is more extensive in area and produces greater discomfort then the early phase reaction.
Dust mite antigen is used (D. pteronyssinus; Allergy Laboratories of Ohio; 30,000 AU/ml). The soluble IL-1 receptor (Immunex Corp.; Seattle, Wash.) stock concentration is 10 mg/ml. Eight test solutions are prepared for intradermal injections (0.01 ml each) using TB syringes and disposable needles. Four intradermal test sites are used on each forearm.
Two test solutions are controls. […] Three concentrations of the antigen are evaluated (final concentrations: 1:500,000, 1:200,000, and 1:100,000).
The area of the wheal reaction is marked on the skin with a ball-point pen. […] The wheal reactions are then calculated by counting the squares within the pen-marked area.

alloreactivity in vivo = conditions: systemic administration; cited from earlier work

B1: IL-1 receptor: soluble IL-1 receptor (Immunex Corp.; Seattle, Wash.), stock concentration 10 mg/ml (protein, UniProt P14778 18-336, looked up)
extracellular domain: LEADKCKEREEKIILVSSANEIDVRPCPLNPNEHKGTITWYKDDSKTPVSTEQASRIHQHKEKLWFVPAKVEDSGHYYCVVRNSSYCLRIKISAKFVENEPNLCYNAQAIFKQKLPVAGDGGLVCPYMEFFKNENNELPKLQWYKDCKPLLLDNIHFSGVKDRLIVMNVAEKHRGNYTCHASYTYLGKQYPITRVIEFITLEENKPTRPVIVSPANETMEVDLGSQIQLICNVTGQLSDIAYWKWNGSVIDEDDPVLGEDYYSVENPANKRRSTLITVLNISEIESRFYKHPFTCFAKNTHGIDAAYIQLIYPVTNFQK
modifications: extracellular domain
notes: soluble IL-1 receptor (Immunex Corp; Seattle, Wash.), stock concentration 10 mg/ml
- nasal symptoms [1]: inhibits
- release of histamine and other inflammatory mediators [1]: inhibits
- immediate hypersensitivity ocular reaction (clinical response) ([2]; allergic subjects, allergen premixed with IL-1 receptor versus allergen without receptor, all allergen doses): significantly reduced response
- increase in eosinophils in the tear fluid ([2]; highest allergen dose, 6 hours after provocation (late phase), allergic patients): not seen
- severity of the disease [3]: reduced
- activation of mast cells, infiltration of the tissues by eosinophils and other inflammatory cells, tissue damage and dysfunction (histologic data) [4]: markedly suppressed
- eosinophil emigration in the lungs (bronchoalveolar lavage) [4]: suppression
- reduction of wheal at peak of LPR ([5]; LPR peak between eight and 13 hours): at least 50%
- wheal area, early phase ([5]; twenty minutes post injection): reduced
- survival of heart allografts (alloreactivity in vivo): prolonged
